Data set [1] relates to white mice (male mice of type NMRI). Briefly: Blood sugar level in mice after intravenous injection (anthrone method). The format is in vivo. As to conditions: i.v.; for blood sugar level reduced to % of the normal value: in 30 minutes. On the procedure:
Test animals were white mice (male mice of type NMRI) having a body weight of 25±2 g. The solutions below were administrated intravenously in the tails of the mice. There were three groups of mice, in which there were three mice each. The solutions contained:
Group A: 0.5 ml 0.9% (w/v) NaCl
Group B: 0.5 ml 0.9% (w/v) NaCl and 5 ug native insulin
Group C: 0.5 ml 0.9% (w/v) NaCl 50 ug insulin-2-pyridyl disulfide derivative synthesized as above.
Blood samples were collected in micro capillary tubes from the corners of the eyes of the mice. The samples were collected 10 minutes before injection and 30, 120, 240 minutes, 7, 15 and 24 hours on injection. The anthrone method was used to determine the carbohydrate content of the samples (Burt J R; Anal Biochem, 9 (1964) p 293-302).

Data set [2] can be described thus: Half-life of circulating catalase activity in burnt rats (Clark electrode). The format is in vivo, rats (Sprague Dawley). As to conditions: i.v., 20,000 IU, hind paws burnt 5 minutes after injection, catalase activity in blood. On the procedure:
(§1) Test animals were white rats (Sprague Dawley) of a body weight of 300-350 g. Two groups of rats (6 individuals each) were separately injected intravenously with 0.5 ml 0.9% (w/v) NaCl containing 20,000 international units (IU) native catalase respectively an amount of catalase-2-dipyridyl disulfide derivative (synthesized as above) corresponding to 20,000 (IU) native catalase. 5 minutes after injection hind paws of all the rats were burnt by dipping into circulating water of +55° C. for 20 seconds. 0.4 ml blood was collected from the left arteriae carotis at the time intervals 2, 15, 30, 60, 120 and 180 minutes. The catalase activity in each blood sample was determined as the amount of oxygen formed per time unit. Measurements were carried out with a Clark electrode by standard procedures.

Data set [3] deals with white rats (Sprague Dawley), burnt hind paws. Briefly: Oedema of the burn, measured as the volume of the paw. Conditions: i.v., amount corresponding to 20,000 IU, in 2 hours. The data set is classed as in vivo. On the procedure:
as §1
The oedema of the burn was measured as the volume of the paw. This volume was measured as corresponding deplacement at even time cuts during 3 hours.

Data set [4] can be described thus: Determination of half-life for circulation in rabbit (superoxide dismutase activity of blood samples). The data set is classed as in vivo. As to conditions: i.v., 1 ml of 10 mg/ml. On the procedure: Test animals were white rabbits having a body weight of 2-5 kg. 1 ml native superoxide dismutase (yeast superoxide dismutase, Carlsberg Laboratories, Copenhagen, Denmark) (10 mg/ml) or 1 ml superoxide dismutase-2-pyridyl disulfide derivative (10 mg/ml) was injected intravenously into the rabbits. Both of the solutions were prepared from 0.9% (w/v) NaCl. Blood samples were collected from the ear lobes of the rabbits at the time intervals 5, 10, 20, 30, 60, 90, 120, 150, 180 and 210 minutes. The superoxide dismutase activity of the samples was determined according to Crapo J D, McCord J M and Fridovich I; Methods of Enzymology 53 (1978) p 382-393.

Regarding “insulin-2-pyridyl disulfide derivative: insulin reacted with N-succinimidyl-3-(2-pyridyldithio)-propionate (SPDP)”, in data set [1] (50 ug derivative (group C)), the “time until blood sugar level returned to normal values” was over 24 h and the “blood sugar level reduced to % of the normal value” is listed as 40 % of the normal value. Consider “native insulin: native insulin, underivatized base compound used as comparison”, for which, in data set [1] (5 ug native insulin (group B)), the “time until blood sugar level reached the normal value (value before injection)” value came to 7 h and the “blood sugar level reduced to % of the normal value” was 40 % of the normal value.

B1: native catalase: catalase of bovine liver (Sigma C-100), further purified by gel filtration (protein, UniProt P00432 2-527, looked up)
Catalase: ADNRDPASDQMKHWKEQRAAQKPDVLTTGGGNPVGDKLNSLTVGPRGPLLVQDVVFTDEMAHFDRERIPERVVHAKGAGAFGYFEVTHDITRYSKAKVFEHIGKRTPIAVRFSTVAGESGSADTVRDPRGFAVKFYTEDGNWDLVGNNTPIFFIRDALLFPSFIHSQKRNPQTHLKDPDMVWDFWSLRPESLHQVSFLFSDRGIPDGHRHMNGYGSHTFKLVNANGEAVYCKFHYKTDQGIKNLSVEDAARLAHEDPDYGLRDLFNAIATGNYPSWTLYIQVMTFSEAEIFPFNPFDLTKVWPHGDYPLIPVGKLVLNRNPVNYFAEVEQLAFDPSNMPPGIEPSPDKMLQGRLFAYPDTHRHRLGPNYLQIPVNCPYRARVANYQRDGPMCMMDNQGGAPNYYPNSFSAPEHQPSALEHRTHFSGDVQRFNSANDDNVTQVRTFYLKVLNEEQRKRLCENIAGHLKDAQLFIQKKAVKNFSDVHPEYGSRIQALLDKYNEEKPKNAVHTYVQHGSHLSAREKANL
On to B1, for which the “half-life for circulating catalase” value in data set [2] worked out at 9 min.

B2: catalase-2-pyridyl disulfide: purified catalase of bovine liver reacted with SPDP (protein, UniProt P00432 2-527, looked up)
Catalase: ADNRDPASDQMKHWKEQRAAQKPDVLTTGGGNPVGDKLNSLTVGPRGPLLVQDVVFTDEMAHFDRERIPERVVHAKGAGAFGYFEVTHDITRYSKAKVFEHIGKRTPIAVRFSTVAGESGSADTVRDPRGFAVKFYTEDGNWDLVGNNTPIFFIRDALLFPSFIHSQKRNPQTHLKDPDMVWDFWSLRPESLHQVSFLFSDRGIPDGHRHMNGYGSHTFKLVNANGEAVYCKFHYKTDQGIKNLSVEDAARLAHEDPDYGLRDLFNAIATGNYPSWTLYIQVMTFSEAEIFPFNPFDLTKVWPHGDYPLIPVGKLVLNRNPVNYFAEVEQLAFDPSNMPPGIEPSPDKMLQGRLFAYPDTHRHRLGPNYLQIPVNCPYRARVANYQRDGPMCMMDNQGGAPNYYPNSFSAPEHQPSALEHRTHFSGDVQRFNSANDDNVTQVRTFYLKVLNEEQRKRLCENIAGHLKDAQLFIQKKAVKNFSDVHPEYGSRIQALLDKYNEEKPKNAVHTYVQHGSHLSAREKANL
modifications: SPDP 2-pyridyl disulfide derivative
notes: purified catalase of bovine liver reacted with SPDP
In the case of B2, the “half-life for circulating catalase” value in data set [2] amounted to 34 min. Besides, the “swelling of the burnt paws compared to native catalase” value in data set [3] is recorded as “significantly decreased swelling”.

B3: native superoxide dismutase: yeast superoxide dismutase, Carlsberg Laboratories, Copenhagen, Denmark (protein, UniProt P00445 2-154, looked up)
Superoxide dismutase [Cu-Zn]: VQAVAVLKGDAGVSGVVKFEQASESEPTTVSYEIAGNSPNAERGFHIHEFGDATNGCVSAGPHFNPFKKTHGAPTDEVRHVGDMGNVKTDENGVAKGSFKDSLIKLIGPTSVVGRSVVIHAGQDDLGKGDTEESLKTGNAGPRPACGVIGLTN
For the molecule B3, the half-life for circulation entry in data set [4] is “about 10 minutes”.

B4: superoxide dismutase-2-pyridyl disulfide derivative: superoxide dismutase from yeast reacted with SPDP (protein, UniProt P00445 2-154, looked up)
Superoxide dismutase [Cu-Zn]: VQAVAVLKGDAGVSGVVKFEQASESEPTTVSYEIAGNSPNAERGFHIHEFGDATNGCVSAGPHFNPFKKTHGAPTDEVRHVGDMGNVKTDENGVAKGSFKDSLIKLIGPTSVVGRSVVIHAGQDDLGKGDTEESLKTGNAGPRPACGVIGLTN
modifications: SPDP 2-pyridyl disulfide derivative
notes: superoxide dismutase from yeast reacted with SPDP
In data set [4], B4 displayed a half-life for circulation of 60 min.
